B1: C-C motif chemokine 4 (Homo sapiens), P13236 (parent)
chain: MKLCVTVLSLLMLVAAFCSPALSAPMGSDPPTACCFSYTARKLPRNFVVDYYETSSLCSQPAVVFQTKRSKQVCADPSESWVQEYVYDLELN
partner: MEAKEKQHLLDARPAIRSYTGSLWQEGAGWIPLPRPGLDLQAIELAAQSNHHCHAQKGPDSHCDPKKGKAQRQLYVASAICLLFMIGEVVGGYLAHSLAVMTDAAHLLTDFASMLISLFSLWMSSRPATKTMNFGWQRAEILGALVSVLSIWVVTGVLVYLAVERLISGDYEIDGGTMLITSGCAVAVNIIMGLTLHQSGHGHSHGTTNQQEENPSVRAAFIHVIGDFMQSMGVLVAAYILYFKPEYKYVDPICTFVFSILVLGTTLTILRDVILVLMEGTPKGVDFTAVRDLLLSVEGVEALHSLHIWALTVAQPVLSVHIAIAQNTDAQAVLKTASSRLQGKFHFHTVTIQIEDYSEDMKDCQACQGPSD
B2: Ornithine decarboxylase antizyme 3 (Homo sapiens), Q9UMX2 (parent)
chain: MPCKRCRPSVYSLSYIKRGKTRNYLYPIWSPYAYYLYCYKYRITLREKMLPRCYKSITYKEEEDLTLQPRSCLQCSESLVGLQEGKSTEQGNHDQLKELYSAGNLTVLATDPLLHQDPVQLDFHFRLTSQTSAHWHGLLCDRRLFLDIPYQALDQGNRESLTATLEYVEEKTNVDSVFVNFQNDRNDRGALLRAFSYMGFEVVRPDHPALPPLDNVIFMVYPLERDVGHLPSEPP
partner: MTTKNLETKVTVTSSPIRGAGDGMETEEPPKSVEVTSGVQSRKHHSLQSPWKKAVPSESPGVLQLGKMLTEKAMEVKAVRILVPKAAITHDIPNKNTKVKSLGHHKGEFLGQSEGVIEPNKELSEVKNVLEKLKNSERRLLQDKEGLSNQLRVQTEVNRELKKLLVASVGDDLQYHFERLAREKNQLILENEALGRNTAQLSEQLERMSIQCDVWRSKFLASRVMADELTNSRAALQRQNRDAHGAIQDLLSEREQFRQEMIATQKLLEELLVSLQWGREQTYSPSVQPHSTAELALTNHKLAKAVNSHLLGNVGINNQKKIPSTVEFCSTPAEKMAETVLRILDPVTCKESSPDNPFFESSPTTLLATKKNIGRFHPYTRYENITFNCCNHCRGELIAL
B3: LIM/homeobox protein Lhx4 (Homo sapiens), Q969G2 (parent)
chain: MMQSATVPAEGAVKGLPEMLGVPMQQIPQCAGCNQHILDKFILKVLDRHWHSSCLKCADCQMQLADRCFSRAGSVYCKEDFFKRFGTKCTACQQGIPPTQVVRKAQDFVYHLHCFACIICNRQLATGDEFYLMEDGRLVCKEDYETAKQNDDSEAGAKRPRTTITAKQLETLKNAYKNSPKPARHVREQLSSETGLDMRVVQVWFQNRRAKEKRLKKDAGRHRWGQFYKSVKRSRGSSKQEKESSAEDCGVSDSELSFREDQILSELGHTNRIYGNVGDVTGGQLMNGSFSMDGTGQSYQDLRDGSPYGIPQSPSSISSLPSHAPLLNGLDYTVDSNLGIIAHAGQGVSQTLRAMAGGPTSDISTGSSVGYPDFPTSPGSWLDEMDHPPF
partner: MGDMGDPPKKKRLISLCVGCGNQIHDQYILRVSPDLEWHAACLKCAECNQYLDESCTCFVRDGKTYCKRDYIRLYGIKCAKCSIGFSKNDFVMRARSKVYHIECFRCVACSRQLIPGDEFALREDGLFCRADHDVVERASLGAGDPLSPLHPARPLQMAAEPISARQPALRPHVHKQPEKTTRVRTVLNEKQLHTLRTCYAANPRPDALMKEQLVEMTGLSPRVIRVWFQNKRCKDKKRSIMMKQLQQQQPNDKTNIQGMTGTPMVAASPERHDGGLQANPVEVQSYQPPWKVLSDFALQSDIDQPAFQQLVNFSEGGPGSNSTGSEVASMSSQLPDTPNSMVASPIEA

Variants of: B1
Conditions: with znt2_human SLC30A2, Q9BRI3

| Variant | effect of a mutation on the interaction |
| --- | --- |
| MKLCVTVLSLLMLVATFCSPALSAPMGSDPPTACCFSYTARKLPRNFVVDYYETSSLCSQPAVVFQTKRSKQVCADPSESWVQEYVYDLELN | disrupting interaction strength |
| MKLCVTVLSLLMLVAAFRSPALSAPMGSDPPTACCFSYTARKLPRNFVVDYYETSSLCSQPAVVFQTKRSKQVCADPSESWVQEYVYDLELN | with no effect |
| MKLCVTVLSLLMLVAAFCSPVLSAPMGSDPPTACCFSYTARKLPRNFVVDYYETSSLCSQPAVVFQTKRSKQVCADPSESWVQEYVYDLELN | disrupting interaction strength |

Variants of: B2
Conditions: with go45_human BLZF1, Q9H2G9

| Variant | effect of a mutation on the interaction |
| --- | --- |
| MPCKRCRPSVYSLSYIKRGKTRNYLYPIWSPYAYYLYCYKYRITLREKMLPRCYKSITYKEEEDLTLQPRSCLQCSESLVGLQEGKSTEQGNHDQLKELYSAGNLTVLATDPLLHQDPVQLDFHFRLTSQTSAHWHGLLCDRRLFLDIPYQALDQGNRESLTATLEYVEEKTNVDSVFVNFQNDRNDRGALLQAFSYMGFEVVRPDHPALPPLDNVIFMVYPLERDVGHLPSEPP [R193Q] | with no effect |
| MPCKRCRPSVYSLSYIKRGKTRNYLYPIWSPYAYYLYCYKYRITLREKMLPRCYKSITYKEEEDLTLQPRSCLQCSESLVGLQEGKSTEQGNHDQLKELYSAGNLTVLATDPLLHQDPVQLDFHFRLTSQTSAHWHGLLCDRRLFLDIPYQALDQGNRESLTATLEYVEEKTNADSVFVNFQNDRNDRGALLRAFSYMGFEVVRPDHPALPPLDNVIFMVYPLERDVGHLPSEPP [V174A] | disrupting interaction strength |

Variants of: B3
Conditions: with isl1_human ISL1, P61371

| Variant | effect of a mutation on the interaction |
| --- | --- |
| MMQSATVPAEGAVKGLPEMLGVPMQQIPQCAGCNQHILDKFILKVLDRHWHSSCLKCADCQMQLADRCFSRAGSVYCKEDFFKRFGTKCTACQQGIPPTQVVRKAQDFVYHLHCFACIICNRQLATGDEFYLMEDGRLVCKEDYETAKQNDDSEAGAKRPRTTITAKQLETLKNAYKNSPKPARHVREQLSSETGLDMRVVQVWFQNRRAKEKRLKKDAGRHRWGQFYKSVKRSRGSSKQEKESSAEDCGVSDSELSFREDQILSELGHTNRIYGNVGDVTGGQLMNGSFSMDGTGQSYQDLRDGSPYGIPQSPSSISSLPSHAPLLSGLDYTVDSNLGIIAHAGQGVSQTLRAMAGGPTSDISTGSSVGYPDFPTSPGSWLDEMDHPPF [N328S] | with no effect |

Reference: IntAct's records for PubMed 31515488
